Measured values taken from PMC8748714 (2022).
Where two headings read alike, the source gives them in different places.

Tests used:
[1] = molecular target: exendin-P5; test: radioligand competition binding on whole cells; conditions: parent: est. 0; read off a plot
[2] = molecular target: exendin-P5; test: radioligand competition binding on whole cells; conditions: parent: est. 0; read off a plot; remark: listed apart in the source
[3] = molecular target: GLP-1R L142A
[4] = molecular target: GLP-1R L141A
[5] = molecular target: GLP-1R E138A
[6] = molecular target: GLP-1R S193A
[7] = molecular target: GLP-1R L201A
[8] = molecular target: GLP-1R V194A
[9] = molecular target: cMyc-GLP-1R Y148A (human) (UniProt P43220)
[10] = molecular target: GLP-1R K202A
[11] = molecular target: GLP-1R Q211A
[12] = molecular target: GLP-1R M204A
[13] = molecular target: GLP-1R S206A
[14] = molecular target: GLP-1R Q210A
[15] = molecular target: GLP-1R L144A
[16] = molecular target: GLP-1R Y145A
[17] = molecular target: GLP-1R H212A
[18] = molecular target: GLP-1R P137A
[19] = molecular target: GLP-1R Y205A
[20] = molecular target: GLP-1R D198A
[21] = molecular target: cMyc-GLP-1R R190A (human) (UniProt P43220)
[22] = molecular target: GLP-1R L142A (Homo sapiens)
[23] = molecular target: cMyc-GLP-1R Y152A (human) (UniProt P43220)
[24] = molecular target: GLP-1R Y145A (Homo sapiens)
[25] = molecular target: GLP-1R L141A (Homo sapiens)
[26] = molecular target: GLP-1R S206A (Homo sapiens)
[27] = molecular target: GLP-1R L201A (Homo sapiens)
[28] = molecular target: GLP-1R E138A (Homo sapiens)
[29] = molecular target: GLP-1R S193A (Homo sapiens)
[30] = molecular target: GLP-1R V194A (Homo sapiens)
[31] = molecular target: wild-type cMyc-GLP-1R (human) (UniProt P43220)
[32] = molecular target: GLP-1R P137A (Homo sapiens)
[33] = molecular target: GLP-1R K202A (Homo sapiens)
[34] = molecular target: GLP-1R M204A (Homo sapiens)
[35] = molecular target: GLP-1R D198A (Homo sapiens)
[36] = molecular target: cMyc-GLP-1R K197A (human) (UniProt P43220)
[37] = molecular target: GLP-1R Y205A (Homo sapiens)
[38] = molecular target: GLP-1R Q211A (Homo sapiens)
[39] = molecular target: GLP-1R L144A (Homo sapiens)
[40] = molecular target: GLP-1R H212A (Homo sapiens)
[41] = molecular target: cMyc-GLP-1R Y148A (human) (UniProt P43220); remark: listed apart in the source
[42] = molecular target: GLP-1R Q210A (Homo sapiens)
[43] = molecular target: exendin-4, P26349; test: radioligand competition binding on whole cells; conditions: chain shown with the change;; parent: est. 0; read off a plot

With “wild-type cMyc-GLP-1R (from UniProt P43220) W297A” the log10 ratio [1] was -1.3 pIC50 ΔWT and the log10 ratio [2] was -1.2 pIC50 ΔWT.

Work on exendin-P5 yielded an IC50 [3] of 537 nM, an IC50 [4] of 102 nM and an IC50 [5] of 60.3 nM. For the same molecule, the IC50 [6] was 75.9 nM, the IC50 [7] was 251 nM and the IC50 [8] was 182 nM. The IC50 [9] was 135 nM, the IC50 [10] was 170 nM and the IC50 [11] was 240 nM. It also gave an IC50 [12] of 67.6 nM, an IC50 [13] of 269 nM and an IC50 [14] of 501 nM. It also gave an IC50 [15] of 257 nM, an IC50 [16] of 46.8 nM and an IC50 [17] of 282 nM. It also gave an IC50 [18] of 437 nM, an IC50 [19] of 69.2 nM and an IC50 [20] of 191 nM.

Work on “wild-type cMyc-GLP-1R (from UniProt P43220) E364A” yielded a log10 ratio [1] of -0.95 pIC50 ΔWT and a log10 ratio [2] of -1 pIC50 ΔWT.

Molecule exendin-4 (from UniProt P26349 48-87) has an IC50 [21] of 407 nM, an IC50 [22] of 0.692 nM and an IC50 [23] of 38 nM. It also gave an IC50 [24] of 0.617 nM, an IC50 [25] of 4.9 nM and an IC50 [26] of 2.19 nM. The IC50 [27] was 3.47 nM, the IC50 [28] was 0.661 nM and the IC50 [29] was 1.38 nM. It also gave an IC50 [30] of 11.7 nM, an IC50 [31] of 0.891 nM and an IC50 [32] of 3.89 nM. For the same molecule, the IC50 [33] was 1.91 nM, the IC50 [34] was 17.8 nM and the IC50 [35] was 162 nM. For the same molecule, the IC50 [36] was 25.1 nM, the IC50 [37] was 8.91 nM and the IC50 [38] was 4.37 nM. It also gave an IC50 [39] of 0.741 nM, an IC50 [40] of 0.479 nM and an IC50 [41] of 7.76 nM. The IC50 [42] was 2.09 nM.

“wild-type cMyc-GLP-1R (from UniProt P43220) E387A” was tested, and the log10 ratio [1] was -1.1 pIC50 ΔWT and the log10 ratio [2] was -1.1 pIC50 ΔWT.

B1: wild-type cMyc-GLP-1R, P43220 K197A (protein)
chain: RPQGATVSLWETVQKWREYRRQCQRSLTEDPPPATDLFCNRTFDEYACWPDGEPGSFVNVSCPWYLPWASSVPQGHVYRFCTAEGLWLQKDNSSLPWRDLSECEESKRGERSSPEEQLLFLYIIYTVGYALSFSALVIASAILLGFRHLHCTRNYIHLNLFASFILRALSVFIADAALKWMYSTAAQQHQWDGLLSYQDSLSCRLVFLLMQYCVAANYYWLLVEGVYLYTLLAFSVLSEQWIFRLYVSIGWGVPLLFVVPWGIVKYLYEDEGCWTRNSNMNYWLIIRLPILFAIGVNFLIFVRVICIVVSKLKANLMCKTDIKCRLAKSTLTLIPLLGTHEVIFAFVMDEHARGTLRFIKLFTELSFTSFQGLMVAILYCFVNNEVQLEFRKSWERWRLEHLHIQRDSSMKPLKCPTSSLSSGATAGSSMYTATCQASCS
Work on B1 yielded a log10 ratio [43] of -1.5 pIC50 ΔWT.

B2: wild-type cMyc-GLP-1R, P43220 W297A (protein)
chain: RPQGATVSLWETVQKWREYRRQCQRSLTEDPPPATDLFCNRTFDEYACWPDGEPGSFVNVSCPWYLPWASSVPQGHVYRFCTAEGLWLQKDNSSLPWRDLSECEESKRGERSSPEEQLLFLYIIYTVGYALSFSALVIASAILLGFRHLHCTRNYIHLNLFASFILRALSVFIKDAALKWMYSTAAQQHQWDGLLSYQDSLSCRLVFLLMQYCVAANYYWLLVEGVYLYTLLAFSVLSEQWIFRLYVSIGWGVPLLFVVPWGIVKYLYEDEGCATRNSNMNYWLIIRLPILFAIGVNFLIFVRVICIVVSKLKANLMCKTDIKCRLAKSTLTLIPLLGTHEVIFAFVMDEHARGTLRFIKLFTELSFTSFQGLMVAILYCFVNNEVQLEFRKSWERWRLEHLHIQRDSSMKPLKCPTSSLSSGATAGSSMYTATCQASCS
B2 was tested, and the log10 ratio [43] was -1.5 pIC50 ΔWT.

B3: wild-type cMyc-GLP-1R, P43220 R190A (protein)
chain: RPQGATVSLWETVQKWREYRRQCQRSLTEDPPPATDLFCNRTFDEYACWPDGEPGSFVNVSCPWYLPWASSVPQGHVYRFCTAEGLWLQKDNSSLPWRDLSECEESKRGERSSPEEQLLFLYIIYTVGYALSFSALVIASAILLGFRHLHCTRNYIHLNLFASFILAALSVFIKDAALKWMYSTAAQQHQWDGLLSYQDSLSCRLVFLLMQYCVAANYYWLLVEGVYLYTLLAFSVLSEQWIFRLYVSIGWGVPLLFVVPWGIVKYLYEDEGCWTRNSNMNYWLIIRLPILFAIGVNFLIFVRVICIVVSKLKANLMCKTDIKCRLAKSTLTLIPLLGTHEVIFAFVMDEHARGTLRFIKLFTELSFTSFQGLMVAILYCFVNNEVQLEFRKSWERWRLEHLHIQRDSSMKPLKCPTSSLSSGATAGSSMYTATCQASCS
In the case of B3, the log10 ratio [43] is reported as -2.6 pIC50 ΔWT.
